According to patent publication US12221480:
Values belong to the molecule of their own block, whether it stands above or below them.

Experiments:
[1] = target: anti-CD20 (Rituxan) chimeric antigen receptor ACT2; experiment: flow cytometry, panel Donor 4 (δ3-23): cells transduced with the anti-CD20 CAR ACT2, stained with rat anti-Rituximab-FITC; no % sign is printed
[2] = target: anti-CD20 (Rituxan) chimeric antigen receptor ACT2; experiment: flow cytometry, panel Donor 4 (δ3-08): cells transduced with the anti-CD20 CAR ACT2, stained with rat anti-Rituximab-FITC; no % sign is printed
[3] = target: anti-CD20 (Rituxan) chimeric antigen receptor ACT2; experiment: flow cytometry, panel Donor 3 (δ3-23): cells transduced with the anti-CD20 CAR ACT2, stained with rat anti-Rituximab-FITC; no % sign is printed
[4] = target: recombinant human soluble γ2 δ3TCR-FC (wild type) (human) (UniProt B7Z8K6); experiment: Octet, γ2δ3TCR-hFc captured on anti-human Fc biosensor; row antibody δ3-58 taken as first (saturating), column antibody as second; 5 µg/mL each; self pair
[5] = target: recombinant human soluble γ2 δ3TCR-FC (wild type) (human) (UniProt B7Z8K6); experiment: Octet, γ2δ3TCR-hFc captured on anti-human Fc biosensor; row antibody δ3-08 taken as first (saturating), column antibody as second; 5 µg/mL each
[6] = target: γ2δ3 TCR-hFc mutant S1 (D10N in the Vδ3 chain) (human) (UniProt B7Z8K6); experiment: Luminex beads; TCR-hFc captured by goat anti-human Fc; antibody titrated
[7] = target: γ2δ3 TCR-hFc mutant S4 (E18Q in the Vδ3 chain) (human) (UniProt B7Z8K6); experiment: as above
[8] = target: γ2δ3 TCR-hFc mutant S6 (R75Q, R95Q in the Vδ3 chain) (human) (UniProt B7Z8K6); experiment: as above
[9] = target: recombinant human soluble γ2 δ3TCR-FC (wild type) (human) (UniProt B7Z8K6); experiment: as above
[10] = target: γ2δ3 TCR-hFc mutant S5 (D70N, E67Q in the Vδ3 chain) (human) (UniProt B7Z8K6); experiment: as above
[11] = target: γ2δ3 TCR-hFc mutant S7 (D57N, R65Q in the Vδ3 chain) (human) (UniProt B7Z8K6); experiment: as above
[12] = target: γ2δ3 TCR-hFc mutant S9 (E67Q, D70N, R75Q, R95Q, E97Q in the Vδ3 chain) (human) (UniProt B7Z8K6); experiment: as above
[13] = target: γ2δ3 TCR-hFc mutant S2 (D26N, K85L in the Vδ3 chain) (human) (UniProt B7Z8K6); experiment: as above
[14] = target: recombinant human soluble γ2 δ3TCR-FC (wild type) (human) (UniProt B7Z8K6); experiment: Octet, γ2δ3TCR-hFc captured on anti-human Fc biosensor; row antibody δ3-42 taken as first (saturating), column antibody as second; 5 µg/mL each
[15] = target: γ2δ3 TCR-hFc mutant S8 (K79L, E18Q, H88F in the Vδ3 chain) (human) (UniProt B7Z8K6); experiment: Luminex beads; TCR-hFc captured by goat anti-human Fc; antibody titrated; extrapolated value, no saturation achieved
[16] = target: γ2δ3 TCR-hFc mutant S11 (K79L, L82K, H88F in the Vδ3 chain) (human) (UniProt B7Z8K6); experiment: as above
[17] = target: γ2δ3 TCR-hFc mutant S3 (K79L, H88F in the Vδ3 chain) (human) (UniProt B7Z8K6); experiment: as above
[18] = target: γ2δ3 TCR-hFc mutant S10 (K3A, K79L, H88T in the Vδ3 chain) (human) (UniProt B7Z8K6); experiment: as above
[19] = target: recombinant human soluble γ2 δ3TCR-FC (wild type) (human) (UniProt B7Z8K6); experiment: Octet, γ2δ3TCR-hFc captured on anti-human Fc biosensor; row antibody δ3-23 taken as first (saturating), column antibody as second; 5 µg/mL each
[20] = target: recombinant human soluble γ2 δ3TCR-FC (wild type) (human) (UniProt B7Z8K6); experiment: Octet, γ2δ3TCR-hFc captured on anti-human Fc biosensor; row antibody δ3-31 taken as first (saturating), column antibody as second; 5 µg/mL each
[21] = target: recombinant human soluble γ2 δ3TCR-FC (wild type) (human) (UniProt B7Z8K6); experiment: Octet, γ2δ3TCR-hFc captured on anti-human Fc biosensor; row antibody δ3-08 taken as first (saturating), column antibody as second; 5 µg/mL each; self pair
[22] = target: γ2δ3 TCR-hFc mutant S8 (K79L, E18Q, H88F in the Vδ3 chain) (human) (UniProt B7Z8K6); experiment: Luminex beads; TCR-hFc captured by goat anti-human Fc; antibody titrated
[23] = target: γ2δ3 TCR-hFc mutant S11 (K79L, L82K, H88F in the Vδ3 chain) (human) (UniProt B7Z8K6); experiment: as above
[24] = target: γ2δ3 TCR-hFc mutant S3 (K79L, H88F in the Vδ3 chain) (human) (UniProt B7Z8K6); experiment: as above
[25] = target: γ2δ3 TCR-hFc mutant S10 (K3A, K79L, H88T in the Vδ3 chain) (human) (UniProt B7Z8K6); experiment: as above
[26] = target: recombinant human soluble γ2 δ3TCR-FC (wild type) (human) (UniProt B7Z8K6); experiment: Octet, γ2δ3TCR-hFc captured on anti-human Fc biosensor; row antibody δ3-58 taken as first (saturating), column antibody as second; 5 µg/mL each
[27] = target: Vδ3 γδ TCR on the surface of human Vδ3 γδ T cells (PBMC-derived, expanded cultures) (human) (UniProt A0JD37); experiment: flow cytometry on expanded, αβ T cell depleted γδ T cells of Donor 4
[28] = target: Vδ3 γδ TCR on the surface of human Vδ3 γδ T cells (PBMC-derived, expanded cultures) (human) (UniProt A0JD37); experiment: flow cytometry, upper right panel (δ3-08 Expansion): untransduced Donor 4 cells after αβ T cell depletion, δ3-23 MAb staining (x axis) against anti-TCRαβ (y axis); the gated population lies between about 10^4 and 10^5 on the δ3-23 axis; no % sign is printed
[29] = target: Vδ3 γδ TCR on the surface of human Vδ3 γδ T cells (PBMC-derived, expanded cultures) (human) (UniProt A0JD37); experiment: flow cytometry, lower right panel (δ3-23 Expansion): untransduced Donor 4 cells after αβ T cell depletion, δ3-23 MAb staining (x axis) against anti-TCRαβ (y axis); the gated population lies between about 10^4 and 10^5 on the δ3-23 axis; no % sign is printed
[30] = target: Vδ3 γδ TCR on the surface of human Vδ3 γδ T cells (PBMC-derived, expanded cultures) (human) (UniProt A0JD37); experiment: cell-based or functional assay
[31] = target: recombinant human soluble γ2 δ3TCR-FC (wild type) (human) (UniProt B7Z8K6); experiment: Octet, γ2δ3TCR-hFc captured on anti-human Fc biosensor; row antibody δ3-23 taken as first (saturating), column antibody as second; 5 µg/mL each; self pair
[32] = target: recombinant human soluble γ2 δ3TCR-FC (wild type) (human) (UniProt B7Z8K6); experiment: Octet, γ2δ3TCR-hFc captured on anti-human Fc biosensor; row antibody δ3-42 taken as first (saturating), column antibody as second; 5 µg/mL each; self pair
[33] = target: γ2δ3 TCR-hFc mutant S9 (E67Q, D70N, R75Q, R95Q, E97Q in the Vδ3 chain) (human) (UniProt B7Z8K6); experiment: Luminex beads; TCR-hFc captured by goat anti-human Fc; antibody titrated; extrapolated value, no saturation achieved

Chain of UniProt A0JD37 (A0JD37 19-113, stated change not applied): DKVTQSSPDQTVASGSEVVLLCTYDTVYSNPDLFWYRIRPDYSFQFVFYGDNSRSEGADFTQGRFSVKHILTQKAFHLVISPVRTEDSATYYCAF

Molecule: aRitxmab-FITC (antibody)
- percent of cells in the CAR+ gate [1]: 73.5%
- percent of cells in the CAR+ gate [2]: 70.7%
- percent of cells in the CAR+ gate [3]: 83.1%

B2: δ3-08 (antibody, V domains shown)
VH: EEKLEESGGGLVQPGGSMKLSCVASGFIFSIYWMNWVRQSPEKGLEWVGQIRLKSDNYATHYAESVKGRFTISRDDSKSSVYLQMNNLRAEDTGIYYCMYYGSSYERFAYWGQGTLVTVSA
VL: DIQMIQSPASLSVSVGETVTITCRASENIYSNLAWYQQKQGKSPQLLVYVATKLADGVPSRFSGSGSGTQYSLKINSLQSEDFGSYYCQHFWGTPPWTFGGGTKLEIK
- paired-competition value (Octet signal of the second antibody per paragraph 256) [21]: 0.16
- EC50 [6]: 0.08 nM
- EC50 [7]: 0.06 nM
- EC50 [8]: 0.06 nM
- EC50 [22]: 0.04 nM
- EC50 [23]: 0.03 nM
- EC50 [9]: 0.06 nM
- EC50 [10]: 0.05 nM
- EC50 [11]: 0.07 nM
- EC50 [12]: 0.07 nM
- EC50 [13]: 0.07 nM
- EC50 [24]: 0.05 nM
- EC50 [25]: 2.5 nM
- paired-competition value (Octet signal of the second antibody per paragraph 256) [26]: 0.04
- paired-competition value (Octet signal of the second antibody per paragraph 256) [19]: 0.04
- paired-competition value (Octet signal of the second antibody per paragraph 256) [20]: 0.24

B4: δ3-42 (antibody, V domains shown)
VH: DVQLQESGPDLVKPSQSLSLTCTVTGYSITSGYNWHWIRQFPGNKLEWMGYIHYSGNTDYNPSLRSRISITRDTSKNQFFLHLNSVPTEDTATYYCARSGITTDWYFDVWGAGTTVTVSS
VL: QIVLSQSPAILSASPGEKVTMTCRASSSVNYMHWYQQKPGSSPKPWIYATSNLASGVPARFSGSGSGTSYSLTISKVEAEDAATYYCQQWSSHQPTFGAGTKLELK
- paired-competition value (Octet signal of the second antibody per paragraph 256) [5]: 0.21
- paired-competition value (Octet signal of the second antibody per paragraph 256) [32]: 0.04
- EC50 [6]: 0.07 nM
- EC50 [7]: 0.05 nM
- EC50 [8]: 0.13 nM
- EC50 [9]: 0.05 nM
- EC50 [10]: 0.08 nM
- EC50 [11]: 0.15 nM
- EC50 [13]: 0.17 nM
- paired-competition value (Octet signal of the second antibody per paragraph 256) [26]: 0.03
- EC50 [15]: 258 nM
- EC50 [16]: 199 nM
- EC50 [33]: 49.3 nM
- EC50 [17]: 106 nM
- EC50 [18]: 449 nM
- paired-competition value (Octet signal of the second antibody per paragraph 256) [19]: 0.04
- paired-competition value (Octet signal of the second antibody per paragraph 256) [20]: 0.35

The remaining molecules from weak to strong by EC50 [6], led by results:

- paired-competition value (Octet signal of the second antibody per paragraph 256) [5]: 0.29
- EC50 [6]: 0.04 nM
- EC50 [7]: 0.06 nM
- EC50 [8]: 0.04 nM
- EC50 [9]: 0.04 nM
- EC50 [10]: 0.04 nM
- EC50 [11]: 0.04 nM
- EC50 [12]: 0.05 nM
- EC50 [13]: 0.04 nM
- % of non-Vδ1/non-Vδ2 cells stained positive [27]: > 95%
- percent of cells in the Vd3+ gate [28]: 95.5%
- paired-competition value (Octet signal of the second antibody per paragraph 256) [26]: 0.07
- percent of cells in the Vd3+ gate [29]: 95%
- share of non-Vδ1/non-Vδ2 γδ T cells in the culture on Day 21, Donor 1 [30]: < 41%
- paired-competition value (Octet signal of the second antibody per paragraph 256) [31]: 0.06
- paired-competition value (Octet signal of the second antibody per paragraph 256) [14]: 0.12
- EC50 [15]: 95.8 nM
- EC50 [16]: 112 nM
- EC50 [17]: 137 nM
- EC50 [18]: 117 nM
- paired-competition value (Octet signal of the second antibody per paragraph 256) [20]: 0.48
B3: δ3-23 (antibody, V domains shown)
VH: EVQLQQSGAELVKPGASVKLSCTASGFNIRDTYMHWVKQRPEQGLEWIGRIDPANGNTKYDPKFRGKATITADTSSNTAYLQLSSLTSEGTAVYYCSEGIYFDYWGQGTTLTVSS
VL: DILLTQSPAILSVSPGERVSFSCRASQNIGTIIHWYQQRANGSPRLLIKYASESISGIPSRFSGSGSGTDFTLSINSVESEDIADYYCQQSNSWPYTFGGGTKLEIKR

- paired-competition value (Octet signal of the second antibody per paragraph 256) [4]: 0.03
- paired-competition value (Octet signal of the second antibody per paragraph 256) [5]: 0.22
- EC50 [6]: 0.02 nM
- EC50 [7]: 0.02 nM
- EC50 [8]: 0.02 nM
- EC50 [9]: 0.03 nM
- EC50 [10]: 0.02 nM
- EC50 [11]: 0.04 nM
- EC50 [12]: 0.05 nM
- EC50 [13]: 0.03 nM
- paired-competition value (Octet signal of the second antibody per paragraph 256) [14]: 0.06
- EC50 [15]: 3370 nM
- EC50 [16]: 136 nM
- EC50 [17]: 508 nM
- EC50 [18]: 336 nM
- paired-competition value (Octet signal of the second antibody per paragraph 256) [19]: 0.03
- paired-competition value (Octet signal of the second antibody per paragraph 256) [20]: 0.37
B1: δ3-58 (antibody, V domains shown)
VH: EVKLVESGGGLVQPGGSLKLSCAASGFTFSSYAMSWVRQTPEKRLEWVAYIRDGGGGTYYPDTVEGRFTISRDNAKNTLYLQMSSLKSEDTAMYYCARHPPMNDWFLYWGQGTLVTVSA
VL: DIQMTQSPASLSVSVGETVTITCRASENIYSHLAWYQQKQGKSPQLLVYAATNLADGVPSRFSGSGSGTQYSLKINSLQSEDFGSYYCQHFWGTPYTFGGGTKLEIKR
